Data from PMC10491789.

Molecular target: GPI-T (wild-type human GPI transamidase complex, purified by the same strategy as GPI-T^sub) (human) (UniProt O43292)
Assay: tandem affinity co-purification; co-expressed in HEK293T-derived knockout cells; solubilised with 1% LMNG/0.1% CHS, exchanged to digitonin; Strep-Tactin beads (Strep tag on PIGU) then Ni-NTA (His tag on (pro)ULBP2); 4 °C; 150 mM NaCl, Tris-HCl pH 8.0

yield during the second affinity chromatography step: 4%
Substance: ULBP2 (His-tagged GPI-anchored product, co-expressed with wild-type GPI-T) (from UniProt Q9BZM5 27-217) (natural protein)
